The series is described as follows: yeast display, Sf9 membrane polyspecificity reagent, FACS + sequencing; frameworks hold sequencing errors. In outline:
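Using colony PCR, genes from sorted yeast display clones were amplified, then sequenced on MiSeq at 2 × 250 and filtered by CDR length. The clones had been stained with 10% biotinylated, detergent-solubilized Sf9 membrane reagent for 1 hour at 4 °C and sorted by FACS into low and high (top ~1%) gates on anti-HA and streptavidin fluorescence. Polyreactivity labels come from the gate of origin.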
In the case of “QVQLVESGGGLVQAGGSLRLSCAASGLIFVDYTMGWYRQAPGKERELVAGISNSGNTNYADSVKGRFTISRDNAKNTVYLQMNSLKPEDTAVYYCAAVYTWYPWYPYDYWGQGTQVTVSS”, the “polyreactivity (PSR sort gate)” value is “low polyreactivity”.
For “QVQLVESGGGLVQAGGSLRLSCAASGSIFWNNAMGWYRQAPGKERELVAGISSAGSTNYADSVKGRFTISRDNAKNTVYLQMNILKPEDTAVYYCAAVYYGGFSDYDYWGQGTQVTVSS”, the “polyreactivity (PSR sort gate)” value was “low polyreactivity”.
As for “QDQLVESGGGLVQAGGSLRLSCASSGRIFRWYAMGWYRQATGKERELVAAISWSGDSTYYADSVKGRFSISRDNAKNNVYLEMNSLKPEDTAVYYCNYVLYKSDYWGQGTQVTVSS”, the entry is “high polyreactivity”; as for “QVQLVESGGGLVQAGGSLRLSCAASGIIFDSYAMGWYRQAPGKERELVAAITSDSGRTYYADSVKGRFTISRDNAKNTVYLHMNSLKPEDTAVYYCNADAYTYPTARYYWGQGTQVTVSS”, “low polyreactivity”.
The result for “QVQLQESGGGLVQAGGSLRLSCAASGSISAVGAMGWYRQAPGKEREFAASVNWGTNTNYADSVKGRFTISRDNAKTTLYLQMNSLKPEDTAVYYCAADVQITSAGGDYDYWGQGTQVTVSS” reads “low polyreactivity”.
The result for “QVQLVESGGGLVQAGGSLRLSCAASSIFRTYAMGWYRQAPGKERELVAAITWSGASTNYADSVKGRFTISRDNAKNTVYLQMNSLKPEDTAVYYCNADWRYYPSFKYYYWGQGTQVTVSS” reads “high polyreactivity”; that for “QDQLVESGGGFVQAGGSLRLSCAASGLTFWYYAMGWYRQATGKEVELVAANDWSGASTYYADSVKGRFTISRDNAKNTVYLQMISLQPEDTAVYYCNTVYYIGDDYWGQGTQVTVSS”, “high polyreactivity”; that for “QVQLVESGGGLVQAGGSLRLSCAASGNIFSDYTMGWYRQAPGKERELVAAISGDGGTTYYADSVKGRFTISRDNAKNTVYLQMNSLKPEDTAVYYCAADGYYDAYDQFFIVYYEYDYWGQGTQVTVSS”, “low polyreactivity”.
For “QVQHVESRGGLVQAGGSLRLICAASGFILYYYAMGWYRQAPGKVREMVASISRRGGSTYYADSVKGRFTISRDNAKNTVYLQMNSLKPEDTAVYYCAATETTSRRFGYDYWGQGTQVTVSS”, the “polyreactivity (PSR sort gate)” value is recorded as “high polyreactivity”.
In the case of “QVQLVESGGGLVQAGGRLRLSCAASGSIFAYYAMGSYRQAPGKERELVAAISSSGGSTTYADSVKGRFTISRDNAKYTVYLQMNSLKPDDTAVYYCNAAWRRSRYYNWGQGTQVTVSS”, the “polyreactivity (PSR sort gate)” value is reported as “high polyreactivity”.
Take “QVQLVESGGGLVQAGGSLRLSCAASGFTFDGYGMGWYRQAPGKERELVAVITSGGSTKYADSVKGRFTISRDNAKNTVYLQMNSLNPEDTAVYYCNVVGGRYLYSAYDYWGQGTQVTVSS”: the “polyreactivity (PSR sort gate)” value is listed as “low polyreactivity”.
In the case of “QVQLVESGGGLVQAGGSLRLSCASSGSTIVHYAMGWYRQAPGKERELVAGITDTDNHELRRLCEGRFTISRDNAKNTVYLQMNSLKPEDTAVYFCNADDTYYQLGGITGYDYWGQCTQVTVSS”, the “polyreactivity (PSR sort gate)” value was “low polyreactivity”.
The result for “QVQLVESGGGLVQAGGSLRLSCASSGRTSLNYAMGWYRQAPGKDRELVAAITSGGGGTYYADSVKGRFTISRDNAKNTVYLQMYRLKPEVTALYYCGAKFPARRKLSKVGFDYWGQGTQVSVSS” reads “high polyreactivity”; that for “QVQHVESGGGLVQAGGSLRLSCDASGRIFAKYAMGWYRQAHGKERELVAGISWGGGSTYYADSVKGRFTISRDNAKNTVYLQMNSLKPEDTAVYYCAARIPKQRDVRGSGMNYWGQGTQVTVSS”, “high polyreactivity”.
“QVQLVESGVGLVQAGGSLRISCAASGFIFDWNAMGWYRQAPGKERELVAAISSGGSTHYADSVKGRFTISRDNAKNTVYLQMNSLKPEDTAVYYCAARFPQWRYSRRTGERFDYWGQGTQVTVSS”: the “polyreactivity (PSR sort gate)” value is on record as “low polyreactivity”.
The result for “QVQLVESGGGLVQAGGRLRLSCAASGLTFYLSAMGWYRQAPGKERELVAGISRSGGSTYYADAVKGRFTISRDYAKNTVYLLMNSLKPEDTAVSYCNKASAVFEFYYWGQGTQVTVSS” reads “high polyreactivity”; that for “QVQLVESGGGLVQAGGSLRLSCAASGSTLYYNAMGWYRQAPGKERELVAAITSGGSTSYADSVKGRFTISRDNAKNTVYLQMNSLKPEDTAVYYCAAVFYRRFDYWGQGTQVTVSS”, “low polyreactivity”; that for “QVQLVDSGGGLVQAGGSLRLSCAASGRTFRLNDMGWYRQAPGKDRELVAAITRSGGSTYYADSVKGRFTISRDNAKNTVYFQMNSLKPEDTAVYYCNAVRSRYYDDYDYWGQGTQVTVSS”, “high polyreactivity”.
As for “QVQLVESGGGLVQAGGSLRLSCAASGRTFYSYAMGWYRQAPGKERELVASISSSGASTYYADSVKGRFTISRDNAKNTVYLQMNSLKPEDTAVYYCNAVWRTSFITIYGFDYWGQGTQVTVSS”, the entry is “high polyreactivity”; as for “QVQLVESGGGLVQAGGSLRLSCAASGRSFGNYVMGWYRQAPGKERELVAAISRSGGSTYYADSVKGRFTISRDNAKNIVYLQMNSLKPEDTAVYYCNTVTTYDVEYWGQGTQVTVSS”, “high polyreactivity”.
As for “QVQLVESGGGLLQAGGSLRLSCAASGITFLGYAMGWYRQATWKERELVAAISISGDTYYADSEKGRFTISRDNAKNTVYLQMNSLKPEDTAVYYCAAVQSYAGFEYGYWGQGTQVTVSS”, the “polyreactivity (PSR sort gate)” value is on record as “high polyreactivity”.
For “QVQLVESGGGLVQAGGSLRLSCAASGFTFVVYAMGWYSQAPGKERELVARITWSGGSTYYADSVKGRFTISRDNAKNTVYLQMNSLKPEDTAVYDCNTRRYPYDGIEHDYWGQGTQVTVSS”, the “polyreactivity (PSR sort gate)” value is on record as “low polyreactivity”.
Turning to “QVQLVESGGGLVQAGGSLRLICAASGSIFDTYAMGWYRQAPGKERELLATISWSGDSTYYADSVKGRFTISRDNAKNTVYLQMNCLKPEDTAVYYCAADVGQVSDHEDYDYWGQGTQVTVSS”, the “polyreactivity (PSR sort gate)” value is on record as “low polyreactivity”.
The result for “QVQLVESGGGLVQAGGSLRLSCAASGIIFGTNAMGWYRQAPGKERELVAYITSGGSTYADSVKGRFTISRDNAKNTFYLQMHSLKPEDTEVYYCAAYVFWAFYEYDYWGQGTQVTVSS” reads “low polyreactivity”; that for “QVQLVESAGGLVQAGGSLRLSCAASGSILTSYAMGWYRQAPGKERELVAAINGSGGSTFYADSVKGRFTISRDNAKNTVYLQMNSLKPEDTAVYYCNTGGPRGTTYDYWGQGTQVTVSS”, “low polyreactivity”; that for “QVHLEESGGGLVQAGGSLRLSCAASGGTILAYAMGWYRQAPGKERELVAAITRRGTRTYYADSVKGRFTISLDNAKNTVYLQMNSLKPEVTAVFYCAVSGGFYWGQGTQVTVSS”, “high polyreactivity”.
The result for “QVQLVESGGGLVQAGGSLRLSCAASGRTFANYAMGWYRQAPGKERELVAAISVSTVSTYYADSVKGRFTISRDNAKNTVYLQMNSLKPEDTAVYYCAATSPYKYWYRYNYWGQGTQVTVSS” reads “high polyreactivity”; that for “QVQLVESGGGLVLPGGSLRLSCAASGITFTYNAMGWYRQAPGQERELVAAISYSGGSTYYADSVKGRFTISRDNAKNTVYLQMNSLTPEDTAVYYCARRRLLYSGGKSGYYGYYYWGQGTQVNVSS”, “high polyreactivity”.
The result for “QVQLEESGRGLVQAGGSLRLSCAASGFTFRIYAMGWYRQAPGKGREFVAAITWSSGSTYYADSVKGRFTISRDNAKITVYLQMNSLKPEDTAVYYCAATYRFFPPRYYYWGQGTQVTVSS” reads “high polyreactivity”; that for “QVQLVESGGGLVQAGGSLRLSCAASGFLFYYNAMGWYRQAPGKERELVATSTSGGSTNYADSVKGRFTISRDNAKNTVYLQMNSLKPEDTAVYYCAAGHSWVYGYDYWGQGTQVTVSS”, “low polyreactivity”.

(Values after the nanobody polyreactivity screen of Harvey et al. (2022).)
